Reference: patent US20100095387A1, “METHODS AND REAGENTS FOR SCREENING NEW DRUGS AND FOR TREATING ION PUMP ASSOCIATED DISORDERS AND DISEASES” (priority 2005, published 2010)

System: cultured cortical neurons
Test: Firing properties of cultured cortical neurons in normal external solution
Format: cell-based, mouse
Conditions: absence of TTX and neurotransmitter receptor antagonists

B1: C-Ag20z0: C-Ag20 isoform having the z0 splice variant, SEQ. ID NO. 1 (protein)
chain: MDPRTYIEYLNAVTESEKALQSNHFELTLRTEATQGWLVLWIGKAAERADYMALAIVDGHLQLSYDLASQPVVLRSTVKVNTNRWLRVRAHREHREGSLQVGNEAPVTSSSPLGATQLDTDGALWLGGLQKLPVGQPLPKAYGTGFVGCLRNVVGHRQLHLLEDAVTKPELRPCPTLNSKLGPEQKLISEEDLNSAVDHHHHHH
modifications: Synthetically produced sequence
B1 was tested, and the “frequency of spontaneous action potentials” value was “significant and reversible increase”.

B2: C-Ag15: 15-kD COOH-terminal fragment of agrin created by deleting 37 amino acids from the NH2 terminus of C-Ag20, SEQ. ID NO. 3 (protein)
chain: MDPWIGKAAERADYMALAIVDGHLQLSYDLASQPVVLRSTVKVNTNRWLRVRAHREHREGSLQVGNEAPVTSSSPLGATQLDTDGALWLGGLQKLPVGQPLPKAYGTGFVGCLRNVVGHRQLHLLEDAVTKPELRPCPTLNSKLGPEQKLISEEDLNSAVDHHHHHH
modifications: Synthetically produced sequence
With B2 the “frequency of spontaneous action potentials” value was “inhibited spontaneous activity”.
